Measurements reported in the supplement of paper PMC10724198.
± gives the standard deviation of the averaged measurements.

Tests used:
[1] = tested on: Saccharomyces cerevisiae; experiment: protein stability index of tFT-peptide fusion (C-terminal peptide) (PSI (0-1 scale)); higher = more stable (slower turnover); details: genetic background: wild type; temperature: 30 C
[2] = tested on: Saccharomyces cerevisiae; experiment: as above
Protocol: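 MPS profiling in S. cerevisiae of the tFT-X12 degron library: putative degron peptides plus stable controls, 12 aa, fused to the C-terminus of a sfGFP-mCherry timer. Cells are FACS-sorted into 8 mCherry/sfGFP bins and deep-sequenced. PSI runs from 0 (unstable) to 1 (stable). Backgrounds are wild type, das1Δ and doa10Δ at 30 °C, and wild type, das1Δ, cdc34-1 and cdc53-1 at 37 °C; 2-3 technical replicates each.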

[3] = genetic background: cdc34-1, temperature: 37 C
[4] = genetic background: cdc53-1, temperature: 37 C
[5] = genetic background: das1 deletion, temperature: 30 C
[6] = genetic background: das1 deletion, temperature: 37 C
[7] = genetic background: doa10 deletion, temperature: 30 C
[8] = genetic background: wild type, temperature: 30 C
[9] = genetic background: wild type, temperature: 37 C
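Note: PSI is a weighted mean of sequencing reads over stability bins, variants kept only with over 10 reads, mCherry proximal and sfGFP distal, peptide attached via GGGS linker.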

Sequence	protein stability index [1]	protein stability index [2, 3]	protein stability index [2, 4]	protein stability index [2, 5]	protein stability index [2, 6]	protein stability index [2, 7]	protein stability index [2, 8]	protein stability index [2, 9]
FFVLGPVVMSIH	0.3849 ± 0.0033	0.278 ± 0.046	0.383 ± 0.032	0.285 ± 0.031	0.423 ± 0.02	0.2657 ± 0.0021	0.266 ± 0.038	0.4054 ± 0.0027
SVMTFVFFISAF	0.344 ± 0.1	0.257 ± 0.013	0.397 ± 0.021	0.243 ± 0.039	0.438 ± 0.021	0.212 ± 0.0043	0.238 ± 0.037	0.396 ± 0.0055
VPSMSIVWCRVL	0.213 ± 0.048	0.383 ± 0.036	0.446 ± 0.0055	0.417 ± 0.02	0.511 ± 0.01	0.168 ± 0.01	0.123 ± 0.018	0.12 ± 0.005
APGGRGAAGPSC	0.69 ± 0.029	0.67 ± 0.06	0.7207 ± 0.0065	0.631 ± 0.036	0.751 ± 0.033	0.639 ± 0.021	0.655 ± 0.033	0.704 ± 0.018
VCLFWLFLWRIL	0.266 ± 0.0063	0.208 ± 0.018	0.167 ± 0.027	0.3 ± 0.027	0.374 ± 0.013	0.217 ± 0.014	0.182 ± 0.0051	0.241 ± 0.016
LRFSLLRVGWLC	0.434 ± 0.0087	0.652 ± 0.053	0.681 ± 0.017	0.58 ± 0.0099	0.732 ± 0.022	0.28 ± 0.0089	0.336 ± 0.037	0.561 ± 0.011
TGYRYVGRFFVV	0.248 ± 0.01	0.653 ± 0.037	0.723 ± 0.039	0.588 ± 0.016	0.691 ± 0.016	0.155 ± 0.0032	0.163 ± 0.02	0.329 ± 0.011
FGARCSLSPLVT	0.547 ± 0.1	0.7249 ± 0.0062	0.753 ± 0.017	0.618 ± 0.014	0.7463 ± 0.0025	0.639 ± 0.035	0.652 ± 0.019	0.6977 ± 0.0039
LFFSFLFLATRC	0.236 ± 0.037	0.248 ± 0.012	0.209 ± 0.018	0.254 ± 0.045	0.39184 ± 0.00039	0.2246 ± 0.00043	0.193 ± 0.019	0.311 ± 0.016
VGVSVVMVVEVP	0.0948 ± 0.012	0.0286 ± 0.0009	0.0328 ± 0.00097	0.0504 ± 0.005	0.0524 ± 0.0097	0.0409 ± 0.011	0.042 ± 0.0027	0.0384 ± 0.0064
LNSSVLRLRFFV	0.2643 ± 0.0019	0.542 ± 0.027	0.739 ± 0.063	0.607 ± 0.037	0.756 ± 0.04	0.0882 ± 0.011	0.098 ± 0.024	0.152 ± 0.041
WSMSSPPLLLAS	0.36 ± 0.0058	0.314 ± 0.014	0.301 ± 0.017	0.272 ± 0.017	0.377 ± 0.0019	0.22 ± 0.0085	0.276 ± 0.013	0.349 ± 0.019
PVPPRVNLLRVS	0.3959 ± 0.0035	0.619 ± 0.034	0.6641 ± 0.0053	0.542 ± 0.028	0.6735 ± 0.0053	0.215 ± 0.0024	0.263 ± 0.031	0.475 ± 0.011
DGGHLVGHDLFY	0.727 ± 0.024	0.716 ± 0.023	0.747 ± 0.023	0.656 ± 0.023	0.758 ± 0.032	0.657 ± 0.016	0.664 ± 0.053	0.78 ± 0.0091
PLHPSSTPATPF	0.732 ± 0.034	0.69 ± 0.03	0.741 ± 0.0032	0.667 ± 0.023	0.745 ± 0.023	0.677 ± 0.026	0.6834 ± 0.0044	0.722 ± 0.02
VVVCSLVPLFVL	0.34 ± 0.018	0.3086 ± 0.0026	0.32 ± 0.035	0.272 ± 0.03	0.41 ± 0.017	0.205 ± 0.012	0.235 ± 0.029	0.318 ± 0.0076
CGVWVVVASAYR	0.377 ± 0.03	0.43 ± 0.019	0.483 ± 0.03	0.302 ± 0.02	0.49431 ± 0.00019	0.2812 ± 0.0017	0.304 ± 0.019	0.508 ± 0.0093
MSQVRYQRATRA	0.54 ± 0.067	0.657 ± 0.074	0.676 ± 0.044	0.608 ± 0.0071	0.692 ± 0.0087	0.526 ± 0.021	0.535 ± 0.023	0.648 ± 0.011
SFTVFVVLLFPP	0.323 ± 0.062	0.311 ± 0.021	0.437 ± 0.05	0.284 ± 0.032	0.476 ± 0.024	0.288 ± 0.013	0.304 ± 0.0095	0.4293 ± 0.00063
ASICAFFCWFLV	0.419 ± 0.022	0.527 ± 0.035	0.58116 ± 0.00042	0.457 ± 0.023	0.601 ± 0.024	0.326 ± 0.0088	0.321 ± 0.026	0.497 ± 0.013
YILIKEVLYAVC	0.274 ± 0.018	0.169 ± 0.0061	0.171 ± 0.0086	0.182 ± 0.028	0.281 ± 0.0066	0.128 ± 0.023	0.17 ± 0.024	0.236 ± 0.0088
MALAVRVVYCGA	0.378 ± 0.0028	0.349 ± 0.015	0.391 ± 0.01	0.293 ± 0.023	0.4395 ± 0.0024	0.234 ± 0.011	0.283 ± 0.027	0.415 ± 0.021
GRLVPVILLKLV	0.099045 ± 4e-05	0.3011 ± 0.0019	0.471 ± 0.015	0.441 ± 0.031	0.5625 ± 0.00087	0.0719 ± 0.018	0.0651 ± 0.015	0.0817 ± 0.0024
GGWGSSLGVWVG	0.253 ± 0.011	0.663 ± 0.026	0.7542 ± 0.0024	0.644 ± 0.018	0.7674 ± 0.0045	0.178 ± 0.017	0.217 ± 0.015	0.4022 ± 0.0038
VLVFYFCFSFCS	0.205 ± 0.049	0.144 ± 0.013	0.282 ± 0.043	0.126 ± 0.025	0.297 ± 0.0048	0.11 ± 0.015	0.129 ± 0.029	0.273 ± 0.016
ALVWYSLSIIVN	0.205 ± 0.064	0.0193 ± 0.0028	0.0815 ± 0.086	0.0515 ± 0.03	0.0682 ± 0.0034	0.0397 ± 0.0011	0.0403 ± 0.021	0.0736 ± 0.04
